# B1: Ran-binding protein 3 (Homo sapiens), Q9H6Z4 (parent)
# chain: MADLANEEKPAIAPPVFVFQKDKGQKSPAEQKNLSDSGEEPRGEAEAPHHGTGHPESAGEHALEPPAPAGASASTPPPPAPEAQLPPFPRELAGRSAGGSSPEGGEDSDREDGNYCPPVKRERTSSLTQFPPSQSEERSSGFRLKPPTLIHGQAPSAGLPSQKPKEQQRSVLRPAVLQAPQPKALSQTVPSSGTNGVSLPADCTGAVPAASPDTAAWRSPSEAADEVCALEEKEPQKNESSNASEEEACEKKDPATQQAFVFGQNLRDRVKLINESVDEADMENAGHPSADTPTATNYFLQYISSSLENSTNSADASSNKFVFGQNMSERVLSPPKLNEVSSDANRENAAAESGSESSSQEATPEKESLAESAAAYTKATARKCLLEKVEVITGEEAESNVLQMQCKLFVFDKTSQSWVERGRGLLRLNDMASTDDGTLQSRLVMRTQGSLRLILNTKLWAQMQIDKASEKSIRITAMDTEDQGVKVFLISASSKDTGQLYAALHHRILALRSRVEQEQEAKMPAPEPGAAPSNEEDDSDDDDVLAPSGATAAGAGDEGDGQTTGST
# partner: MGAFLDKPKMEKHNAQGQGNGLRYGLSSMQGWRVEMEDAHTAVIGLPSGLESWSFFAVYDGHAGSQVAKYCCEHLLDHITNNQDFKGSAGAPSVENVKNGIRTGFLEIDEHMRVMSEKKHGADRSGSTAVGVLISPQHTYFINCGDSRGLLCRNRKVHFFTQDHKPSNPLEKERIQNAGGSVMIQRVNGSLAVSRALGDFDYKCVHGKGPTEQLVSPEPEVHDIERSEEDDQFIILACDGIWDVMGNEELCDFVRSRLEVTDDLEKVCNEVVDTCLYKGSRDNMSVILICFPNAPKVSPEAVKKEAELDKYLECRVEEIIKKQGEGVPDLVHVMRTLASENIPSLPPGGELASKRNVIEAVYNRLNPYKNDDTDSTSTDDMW
# B2: Ran-binding protein 3 (Homo sapiens), Q9H6Z4 (parent)
# chain: B1 chain
# Variants of: B1
# Conditions: with ppm1a_human PPM1A
row,Variant,effect of a mutation on the interaction
1,MADLANEEKPAIAPPVFVFQKDKGQKSPAEQKNLSDSGEEPRGEAEAPHHGTGHPEDAGEHALEPPAPAGASASTPPPPAPEAQLPPFPRELAGRSAGGSSPEGGEDSDREDGNYCPPVKRERTSSLTQFPPSQSEERSSGFRLKPPTLIHGQAPSAGLPSQKPKEQQRSVLRPAVLQAPQPKALSQTVPSSGTNGVSLPADCTGAVPAASPDTAAWRSPSEAADEVCALEEKEPQKNESSNASEEEACEKKDPATQQAFVFGQNLRDRVKLINESVDEADMENAGHPSADTPTATNYFLQYISSSLENSTNSADASSNKFVFGQNMSERVLSPPKLNEVSSDANRENAAAESGSESSSQEATPEKESLAESAAAYTKATARKCLLEKVEVITGEEAESNVLQMQCKLFVFDKTSQSWVERGRGLLRLNDMASTDDGTLQSRLVMRTQGSLRLILNTKLWAQMQIDKASEKSIRITAMDTEDQGVKVFLISASSKDTGQLYAALHHRILALRSRVEQEQEAKMPAPEPGAAPSNEEDDSDDDDVLAPSGATAAGAGDEGDGQTTGST [S57D],increasing interaction

# Variants of: B1
# Conditions: with ppm1a_human PPM1A
# Remark: another data set of the same source
row,Variant,effect of a mutation on the interaction
1,MADLANEEKPAIAPPVFVFQKDKGQKSPAEQKNLSDSGEEPRGEAEAPHHGTGHPEAAGEHALEPPAPAGASASTPPPPAPEAQLPPFPRELAGRSAGGSSPEGGEDSDREDGNYCPPVKRERTSSLTQFPPSQSEERSSGFRLKPPTLIHGQAPSAGLPSQKPKEQQRSVLRPAVLQAPQPKALSQTVPSSGTNGVSLPADCTGAVPAASPDTAAWRSPSEAADEVCALEEKEPQKNESSNASEEEACEKKDPATQQAFVFGQNLRDRVKLINESVDEADMENAGHPSADTPTATNYFLQYISSSLENSTNSADASSNKFVFGQNMSERVLSPPKLNEVSSDANRENAAAESGSESSSQEATPEKESLAESAAAYTKATARKCLLEKVEVITGEEAESNVLQMQCKLFVFDKTSQSWVERGRGLLRLNDMASTDDGTLQSRLVMRTQGSLRLILNTKLWAQMQIDKASEKSIRITAMDTEDQGVKVFLISASSKDTGQLYAALHHRILALRSRVEQEQEAKMPAPEPGAAPSNEEDDSDDDDVLAPSGATAAGAGDEGDGQTTGST [S57A],decreasing interaction

# Variants of: B2
# Conditions: with smad2_human SMAD2, Q15796
# Chain of smad2_human SMAD2, Q15796 (Q15796 whole entry): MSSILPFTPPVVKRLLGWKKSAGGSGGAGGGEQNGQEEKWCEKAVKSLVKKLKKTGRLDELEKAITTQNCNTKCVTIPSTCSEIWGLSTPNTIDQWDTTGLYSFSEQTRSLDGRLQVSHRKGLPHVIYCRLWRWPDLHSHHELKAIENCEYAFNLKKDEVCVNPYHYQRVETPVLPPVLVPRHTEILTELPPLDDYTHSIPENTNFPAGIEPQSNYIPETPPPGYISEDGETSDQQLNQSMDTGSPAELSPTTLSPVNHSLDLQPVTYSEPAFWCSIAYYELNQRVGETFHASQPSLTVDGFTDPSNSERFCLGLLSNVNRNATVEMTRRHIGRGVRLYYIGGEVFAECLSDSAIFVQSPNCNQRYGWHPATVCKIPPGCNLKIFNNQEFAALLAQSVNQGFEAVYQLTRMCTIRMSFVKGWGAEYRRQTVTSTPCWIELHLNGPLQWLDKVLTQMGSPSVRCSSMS
row,Variant,effect of a mutation on the interaction
1,MADLANEEKPAIAPPVFVFQKDKGQKSPAEQKNLSDSGEEPRGEAEAPHHGTGHPEDAGEHALEPPAPAGASASTPPPPAPEAQLPPFPRELAGRSAGGSSPEGGEDSDREDGNYCPPVKRERTSSLTQFPPSQSEERSSGFRLKPPTLIHGQAPSAGLPSQKPKEQQRSVLRPAVLQAPQPKALSQTVPSSGTNGVSLPADCTGAVPAASPDTAAWRSPSEAADEVCALEEKEPQKNESSNASEEEACEKKDPATQQAFVFGQNLRDRVKLINESVDEADMENAGHPSADTPTATNYFLQYISSSLENSTNSADASSNKFVFGQNMSERVLSPPKLNEVSSDANRENAAAESGSESSSQEATPEKESLAESAAAYTKATARKCLLEKVEVITGEEAESNVLQMQCKLFVFDKTSQSWVERGRGLLRLNDMASTDDGTLQSRLVMRTQGSLRLILNTKLWAQMQIDKASEKSIRITAMDTEDQGVKVFLISASSKDTGQLYAALHHRILALRSRVEQEQEAKMPAPEPGAAPSNEEDDSDDDDVLAPSGATAAGAGDEGDGQTTGST [S57D],decreasing interaction
